According to patent CN114835808A (dated 2022):

Molecular target: T1, 重组cTnI抗原 (UniProt P19429 1-210, limits assumed)
T1 construct: Both are treated here as the same coating of the same experiment
Test: indirect ELISA, recombinant cTnI coated, enzyme-labelled secondary antibody

T1 sequence (P19429 whole entry): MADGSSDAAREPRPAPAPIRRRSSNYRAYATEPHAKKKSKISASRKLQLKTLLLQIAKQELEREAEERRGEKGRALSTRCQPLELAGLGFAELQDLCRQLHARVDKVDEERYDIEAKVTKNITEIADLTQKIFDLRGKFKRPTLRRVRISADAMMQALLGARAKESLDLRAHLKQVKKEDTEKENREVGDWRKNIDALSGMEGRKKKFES

B1: cTnI抗体突变4 (antibody, V domains shown)
VH: EVQLVESGGDLVTPGGSLKLSCTASGFTFSNYAMSWVRQTPEKRLEWVATISSGGTYTFYPDSVKGRFTISRDNAKNTLYLQMSSLRSEDTAIYYCTAAGAFDGEKALDYWGQGTSVTVSS
VL: DIQMNQSTSSLSASLGDRVTISCRASQDISSYLNWYQQRADGTIKLLIYFTSRLHSGVPSRFSGSGSGTDYSLTISNLEQEDIATYFCQQGNTVAATFGGGTRLEIK
notes: Mutant of a mouse anti-cTnI monoclonal antibody, made recombinantly by transient expression and purified on SPA; also called 突变抗体4
B1: no binding (tested: 检测值小于0.05基本可判定无活性 (阴性对照0.047左右)).
